The term Kd denotes the free concentration of one partner at which half of the binding sites on the other are occupied at equilibrium, for simple one-to-one binding. A lower Kd goes with higher affinity. Broadly, the koff is a measure of how fast the partners let go of each other. Read a high koff as fast dissociation. In general, kon refers to a measure of how fast the partners come together. Lower therefore signals slow association.

From PMC4441819 come the findings set out here.

The target of the assay is CH67 Fab, critical dipeptide VD changed to MD (human). In words: BLI. In general terms: In BLI a coated tip is dipped into the sample, and binding shifts an interference pattern.

For the substance “HA A/Solomon Islands/03/2006 globular head (from UniProt A7Y8I1) (domain or fragment)”, the Kd was found to be 8.5 µM, the koff worked out at 0.00478 s⁻¹ and the kon is 56200 M⁻¹ s⁻¹.
